The values that follow come from patent publication US20060057619A1.

The target in this test is canine Met (canine) (UniProt Q75ZY9). In words: cell-based or functional assay.

For the substance “recombinant human HGF (from UniProt P14210 32-728) (ligand)”, the phosphorylation of canine Met in OSA cell lines was determined as 50 ng/mL.
